The values below come from patent US20230149522A1, “POLYPEPTIDE FOR THE PROPHYLAXIS AND TREATMENT OF VIRAL INFECTIONS” (priority 2020, published 2023).

Data set [1] deals with VSV(Luc-eGFP)-CoV-2. Kind of data set: microbe, parasite or virus in culture. The settings on record: Vesicular stomatitis virus, Caco-2, read-out: IC50 VSV(Luc-eGFP)-CoV-2.
The next data set concerns LV(Luc)-G. In kind it is cell-based, Vesicular Stomatitis Virus.
Data set [2] deals with LV(Luc)-CoV-2. Description: microbe, parasite or virus in culture. The conditions noted are these: Severe acute respiratory syndrome coronavirus 2, Caco-2, read-out: IC50 LV(Luc)-CoV-2.
Data set [3] has as its system LV(Luc)-CoV-2.
Data set [4] concerns VSV(Luc-eGFP)-CoV-2.
In data set [5] the test system is Caco2 (colorectal carcinoma cells).
Data set [6] shares this test system. The source holds these as a separate data set.
The mark [7] stands for this setting: read-out: IC50 VSV(Luc-eGFP)-CoV-2.

Where two headings read alike, the source gives them in different places.

In the case of `CN(C)C(=O)COC(=O)Cc1ccc(OC(=O)c2ccc(NC(=N)N)cc2)cc1` [CM, camostat mesilate, reference compound], the IC50 in the data set on VSV(Luc-eGFP)-CoV-2 [1] amounted to 87.5 nM; in the data set on LV(Luc)-CoV-2 [2], 242 nM. For the same molecule, the “IC50 LV(Luc)-G” value in the data set on LV(Luc)-G is recorded as “unstable”. In addition, the “IC50 LV(Luc)-MLV” value in the data set on LV(Luc)-MLV was “unstable”.
As to `CC[C@H](C)[C@H](NC(=O)[C@H](C)NC(=O)[C@H](CCC(=O)O)NC(=O)[C@H](CCC(=O)O)NC(=O)[C@H](CC(C)C)NC(=O)[C@H](CCCCN)NC(=O)[C@H](CCCCN)NC(=O)[C@H](CCSC)NC(=O)[C@H](CCC(=O)O)NC(=O)[C@H](Cc1ccc(O)cc1)NC(=O)[C@H](CCC(=O)O)NC(=O)[C@H](CC(C)C)NC(=O)[C@H](CC(=O)O)NC(=O)[C@H](CC(C)C)NC(=O)[C@H](Cc1ccccc1)NC(=O)[C@@H](NC(=O)[C@@H](NC(=O)[C@H](CC(N)=O)NC(=O)[C@@H](NC(=O)[C@H](CCC(N)=O)NC(=O)[C@H](CC(=O)O)NC(=O)[C@H](CC(C)C)NC(=O)[C@@H](N)CO)[C@@H](C)CC)C(C)C)[C@@H](C)O)C(=O)N[C@@H](CCCCN)C(=O)N[C@@H](CCCCN)C(=O)N[C@@H](CC(C)C)C(=O)N[C@@H](CCC(=O)O)C(=O)N[C@@H](CCC(=O)O)C(=O)N[C@@H](CO)C(=O)N[C@@H](Cc1ccc(O)cc1)C(=O)N[C@H](C(=O)N[C@@H](CC(=O)O)C(=O)N[C@@H](CC(C)C)C(=O)N[C@@H](CCCCN)C(=O)N[C@@H](CCC(=O)O)C(=O)N[C@@H](CC(C)C)C(=O)O)[C@@H](C)CC` [EK1, reference compound], the half-inhibitory concentration (IC50) is over 20000 nM in the data set with LV(Luc)-MLV (1 h), 82.4 nM with LV(Luc)-CoV-2 [3] (1 h), 281 nM in the data set on VSV(Luc-eGFP)-CoV-2 [4] (2 h) and over 20000 nM with VSV(Luc-eGFP)-G (2 h).

B1: LD2/3 (protein)
chain: ARHLARAPKATAPTELNCDDFKKGERDGDFICPDYYEAVCGTDGKTYDNRCALCAENAKTGSQIGVKSEGECKSSNPEQDVCSAFRPFVRDGRLGCTRENDPVLGPDGKTHGNKCAMCAELFLKEAENAKREGETRIRRN
modifications: human
As to B1, in [5], the “toxicity at the concentrations tested” value is recorded as “toxic at the (two) maximum concentrations tested”. Further, the IC50 in the data set on LV(Luc)-G was determined as 128 nM; with LV(Luc)-MLV (read-out: IC50 LV(Luc)-MLV) it was 343 nM; in the data set on LV(Luc)-CoV-2 [3] (read-out: IC50 LV(Luc)-CoV-2), 181 nM; in the data set on VSV(Luc-eGFP)-CoV-2 [4] (setting [7]), 411 nM; with VSV(Luc-eGFP)-G (read-out: IC50 VSV(Luc-eGFP)-G) it was 257 nM.

B2: LD6 (protein)
chain: ESGKATSYAELCNEYRKLVRNGKLACTRENDPIQGPDGKVHGNTCSMCEVFFQAEEEEKKKKEGESRNKR
modifications: human
With B2, the “toxicity at the concentrations tested” value in data set [5] and in [6] was “toxic at the (two) maximum concentrations tested” throughout. Besides, the IC50 with LV(Luc)-G was 2150 nM; in the data set on LV(Luc)-CoV-2 [3] (read-out: IC50 LV(Luc)-CoV-2), 1030 nM; with VSV(Luc-eGFP)-CoV-2 [4] (setting [7]), 4090 nM; with VSV(Luc-eGFP)-G (read-out: IC50 VSV(Luc-eGFP)-G), 1610 nM. Also, the “IC50 LV(Luc)-MLV” value with LV(Luc)-MLV is listed as “unstable”.

B3: LD15 (protein)
chain: EEDSPDSFSSLDSEMCKDYRVLPRIGYLCPKDLKPVCGDDGQTYNNPCMLCHENLIRQTNTHIRSTGKCEESSTPGTTAASMPPSDE
modifications: human
Regarding B3, the “toxicity at the concentrations tested” value in data set [5] is “toxic at the (two) maximum concentrations tested”. Also, the 50% inhibitory concentration (IC50) in the data set on LV(Luc)-G amounted to 545 nM; in the data set with LV(Luc)-MLV (read-out: IC50 LV(Luc)-MLV), 1270 nM; in the data set on LV(Luc)-CoV-2 [3] (read-out: IC50 LV(Luc)-CoV-2), 956 nM; in the data set with VSV(Luc-eGFP)-CoV-2 [4] (setting [7]), 1850 nM; in the data set with VSV(Luc-eGFP)-G (read-out: IC50 VSV(Luc-eGFP)-G) it was 1020 nM.

As a reminder, the IC50 is the point on the concentration scale where inhibition reaches its midpoint.
